{"source": "paper PMC8141872", "binders": {"B1": {"name": "Rsu-1 triple mutant R2W (Phe71Arg, Arg165Trp, Asp166Arg), Q15404 1-277 (natural protein)", "chain": "MSKSLKKLVEESREKNQPEVDMSDRGISNMLDVNGLFTLSHITQLVLSHNKLTMVPPNIAELKNLEVLNFRNNQIEELPTQISSLQKLKHLNLGMNRLNTLPRGFGSLPALEVLDLTYNNLSENSLPGNFFYLTTLRALYLSDNDFEILPPDIGKLTKLQILSLWRNDLISLPKEIGELTQLKELHIQGNRLTVLPPELGNLDLTGQKQVFKAENNPWVTPIADQFQLGVSHVFEYIRSETYKYLYGRHMQANPEPPKKNNDKSKKISRKPLAAKNR"}}, "target": "GST-fused PINCH-1 LIM5 domain (residues 249-325) (human), P48059", "sequence (P48059 249-325)": "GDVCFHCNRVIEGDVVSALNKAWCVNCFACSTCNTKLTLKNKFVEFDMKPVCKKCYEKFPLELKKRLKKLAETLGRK", "assay": "BLI; BLItz; GST-fused PINCH protein or GST (0.05 mg/ml) loaded on anti-GST biosensor, Rsu-1 WT or mutant in the mobile phase; 20 mM Tris pH 7.5, 150 mM NaCl, 1 mg/ml BSA, 0.05% Tween-20; 1:1 global fit; at least three measurements", "conditions": "remark: other sources report otherwise", "data": [{"binder": "B1", "values": [{"measurement": "Kd", "result": 33.3, "unit": "µM"}]}]}
